# Numbering of substitutions follows the chain as printed. Like-named read-outs stand apart in the source and are kept apart here.
# B1: 5G9 (antibody, V domains shown)
# VH: QVQLVESGGGVVQPGRSLRLSCKASGFNIKDYYMHWVRQAPGKGLEWIGLIDPENGNTIYDPKFQGRFTISADNSKNTLFLQMDSLRPEDTAVYYCARDNSYYFDYWGQGTPVTVSS
# VL: DIQMTQSPSSLSASVGDRVTITCKASQDIRKYLNWYQQKPGKAPKLLIYYATSLADGVPSRFSGSGSGTDYTFTISSLQPEDIATYYCLQHGESPYTFGQGTKLEIT
# notes: Previously described anti-TF antibody; also called humanized TF8-5G9; CNTO 860
# B2: 29D (antibody, human IgG1, V domains shown)
# VH: QVQLVESGGGVVQPGRSLRLSCAASGFTFHSRGMHWVRQAPGKGLEWVAVITYDGINKYYADSVEGRFTISRDNSKNTLYLQMNSLRAEDTAVYYCARDGVYYGVYDYWGQGTLVTVSS
# VL: not shown
# notes: human IgG1
# B3: 29D (antibody, human IgG1, V domains shown)
# VH: B2 VH
# VL: not shown
# notes: Human IgG1; also called antibody 29D
# B4: 39A (antibody, human IgG1, V domains shown)
# VH: QVQLVQSGAEVKKPGSSVKVSCKASGGTFSSNAIGWVRQAPGQGLEWMGSIIPIIGFANYAQKFQGRVTITADESTSTAYMELSSLRSEDTAVYYCARDSGYYYGASSFGMDVWGQGTTVTVSS
# VL: EIVMTQSPATLSVSPGERATLSCRASQSVSSNLAWYQQKPGQAPRLLIYGASTRATGIPARFSGSGSGTEFTLTISSLQSEDFAVYYCEQYNNLPLTFGGGTKVEIK
# notes: Human IgG1
# B5: 1G (antibody, human IgG1, V domains shown)
# VH: EVQLLESGGGLVQPGGSLRLSCAASGFTFSSYAMAWVRQAPGKGLEWVSAISGSGGLTYYADSVKGRFTISRDNSKNTLYLQMNSLRAEDTAVYYCAKAPYGYYMDVWGKGTTVTVSS
# VL: not shown
# notes: human IgG1
# How the values were obtained:
# h108-219_r = molecular target: T1, h108-219_r (human/rat chimera); experiment: live cell staining, flow cytometry
# T1 construct: on HEK293 cells
# T1 chain: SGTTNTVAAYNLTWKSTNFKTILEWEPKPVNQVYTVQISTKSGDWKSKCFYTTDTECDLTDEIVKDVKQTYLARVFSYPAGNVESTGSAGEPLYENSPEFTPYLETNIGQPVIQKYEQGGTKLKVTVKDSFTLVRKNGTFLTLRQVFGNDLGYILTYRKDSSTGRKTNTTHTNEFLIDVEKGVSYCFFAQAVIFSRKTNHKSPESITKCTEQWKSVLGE
# pig TF-His [1] = molecular target: T2, pig TF-His (pig (Sus scrofa)); experiment: SPR (Biacore), antibody captured by anti-human IgG
# T2 construct: also called pig TF ECD-His; pTF
# T2 chain: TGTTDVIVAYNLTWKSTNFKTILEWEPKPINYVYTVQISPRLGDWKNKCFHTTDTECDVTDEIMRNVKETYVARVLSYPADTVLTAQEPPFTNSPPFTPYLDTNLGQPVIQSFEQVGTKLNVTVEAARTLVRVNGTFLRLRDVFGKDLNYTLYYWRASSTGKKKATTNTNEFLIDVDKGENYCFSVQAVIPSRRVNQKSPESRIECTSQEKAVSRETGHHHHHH
# rabbit TF-His [2] = molecular target: T3, rabbit TF-His (rabbit (Oryctolagus cuniculus), UniProt P24055 33-250); experiment: SPR (Biacore), antibody captured by anti-human IgG
# T3 construct: also called rabbit TF ECD-His
# T3 sequence (P24055 other isoform, or with tags, fused parts or gaps): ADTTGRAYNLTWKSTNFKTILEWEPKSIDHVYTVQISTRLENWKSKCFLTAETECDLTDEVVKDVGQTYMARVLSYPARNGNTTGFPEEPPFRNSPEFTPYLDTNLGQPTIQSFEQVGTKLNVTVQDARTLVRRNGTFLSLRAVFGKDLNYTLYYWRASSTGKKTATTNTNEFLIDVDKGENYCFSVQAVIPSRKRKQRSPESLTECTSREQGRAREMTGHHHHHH
# human TF ECD-His6 = molecular target: T4, human TF ECD-His6 (human, UniProt P13726 33-251); experiment: BLI (ForteBio Octet)
# T4 construct: made in Expi293 cells; the entry holds the ECD with the C-terminal TG-His6; also called TF-His; hTF
# cynomolgus TF ECD-His6 = molecular target: T5, cynomolgus TF ECD-His6 (cynomolgus monkey (Macaca fascicularis)); experiment: BLI (ForteBio Octet)
# T5 construct: made in Expi293 cells; also called TF-His; cTF
# T5 chain: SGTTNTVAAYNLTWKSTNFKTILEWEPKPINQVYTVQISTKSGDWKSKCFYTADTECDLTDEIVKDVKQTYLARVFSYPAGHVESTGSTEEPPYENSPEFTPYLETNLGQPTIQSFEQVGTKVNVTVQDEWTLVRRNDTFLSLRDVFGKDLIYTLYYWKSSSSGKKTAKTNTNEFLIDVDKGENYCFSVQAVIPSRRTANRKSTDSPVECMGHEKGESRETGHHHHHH
# rabbit TF-His [3] = molecular target: T6, rabbit TF-His (rabbit (Oryctolagus cuniculus), UniProt P24055 33-250); experiment: SPR (Biacore), antibody captured by anti-human IgG on CM5 chip, rabbit TF-His in solution
# T6 construct: also called rabbit TF ECD-His
# T6 sequence (P24055 other isoform, or with tags, fused parts or gaps): as the sequence (P24055 other isoform, or with tags, fused parts or gaps) above
# pig TF-His [4] = molecular target: T7, pig TF-His (pig (Sus scrofa)); experiment: SPR (Biacore), antibody captured by anti-human IgG on CM5 chip, pig TF-His in solution
# T7 construct: also called pig TF ECD-His; pTF
# T7 chain: T2 chain
# h1-107_r = molecular target: T8, h1-107_r (human/rat chimera); experiment: live cell staining, flow cytometry
# T8 construct: on HEK293 cells
# T8 chain: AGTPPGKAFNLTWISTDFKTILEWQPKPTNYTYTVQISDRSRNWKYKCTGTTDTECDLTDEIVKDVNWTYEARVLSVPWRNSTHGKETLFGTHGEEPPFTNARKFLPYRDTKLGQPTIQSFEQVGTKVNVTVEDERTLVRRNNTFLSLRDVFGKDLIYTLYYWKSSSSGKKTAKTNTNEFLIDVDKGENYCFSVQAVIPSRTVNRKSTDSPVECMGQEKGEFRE
# rTF (rat TF) [5] = molecular target: T9, rTF (rat TF) (rat, UniProt P42533 29-252); experiment: live cell staining, flow cytometry
# T9 construct: Expressed on the surface of transfected HEK293 cells
# h159-219_r = molecular target: T10, h159-219_r (human/rat chimera); experiment: live cell staining, flow cytometry
# T10 construct: on HEK293 cells
# h1-77_r = molecular target: T11, h1-77_r (human/rat chimera); experiment: live cell staining, flow cytometry
# T11 construct: Human TF with ECD residues 1-77 replaced by the rat segment; on HEK293 cells
# hTF_N171H_T197K = molecular target: T12, hTF_N171H_T197K (human, UniProt P13726 33-251); experiment: live cell staining, flow cytometry
# T12 construct: on HEK293 cells
# T12 chain: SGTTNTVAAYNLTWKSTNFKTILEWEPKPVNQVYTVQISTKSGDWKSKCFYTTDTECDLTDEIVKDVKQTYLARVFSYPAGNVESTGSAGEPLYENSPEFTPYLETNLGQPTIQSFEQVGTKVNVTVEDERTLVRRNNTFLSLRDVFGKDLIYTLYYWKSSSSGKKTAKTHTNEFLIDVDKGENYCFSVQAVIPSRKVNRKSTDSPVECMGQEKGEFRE
# rTF (rat TF) [6] = molecular target: T9, rTF (rat TF); experiment: live cell staining, flow cytometry; remark: listed apart in the source
# hTF_K149N = molecular target: T13, hTF_K149N (human, UniProt P13726 33-251); experiment: live cell staining, flow cytometry
# T13 construct: on HEK293 cells; not shown: transmembrane and cytoplasmic part of the construct expressed on HEK293 cells
# T13 chain: T12 chain with K149N, H171N, K197T
# hTF = molecular target: T14, hTF (human, UniProt P13726 33-251); experiment: live cell staining, flow cytometry
# T14 construct: also called human TF; human Tissue Factor
# r141-194_h = molecular target: T15, r141-194_h (rat/human chimera, UniProt P42533 29-252); experiment: live cell staining, flow cytometry
# T15 construct: on HEK293 cells
binder,measurement,setting,value
B1,Percent antibody binding to TF construct relative to hTF,h108-219_r,0%
B2,binding result,pig TF-His [1],no binding (tested: TF-His titration from 100 nM)
same,binding result,rabbit TF-His [2],no binding (tested: TF-His titration from 100 nM)
same,Kd,human TF ECD-His6,3.3 nM
same,Kd,cynomolgus TF ECD-His6,12 nM
B3,binding result,rabbit TF-His [3],no binding
same,binding result,pig TF-His [4],no binding
B4,Percent antibody binding to TF construct relative to hTF,h1-107_r,0%
same,Percent antibody binding to TF construct relative to hTF,rTF (rat TF) [5],0%
same,Percent antibody binding to TF construct relative to hTF,h159-219_r,141%
same,Percent antibody binding to TF construct relative to hTF,h1-77_r,0%
same,Percent antibody binding to TF construct relative to hTF,hTF_N171H_T197K,94%
same,Percent antibody binding to TF construct relative to hTF,rTF (rat TF) [6],0%
same,Percent antibody binding to TF construct relative to hTF,hTF_K149N,131%
same,Percent antibody binding to TF construct relative to hTF,hTF,100%
same,Percent antibody binding to TF construct relative to hTF,r141-194_h,0%
B5,binding result,pig TF-His [1],no binding (tested: TF-His titration from 100 nM)
same,binding result,rabbit TF-His [2],no binding (tested: TF-His titration from 100 nM)
same,Kd,human TF ECD-His6,2.2 nM
same,Kd,cynomolgus TF ECD-His6,2.7 nM
